# Assay results published in patent EP1516629B1 (Genentech, Inc., dated 2013).
# Numbering of substitutions follows the chain as printed. Numbers in names are those of the source. Where “and” joins values, the source holds several entries; their conditions need not be identical. Equal values may be shown once. Read-outs that look alike come from different tables or passages of the source.
# B1: rhesus-binding MHM24 (RhIgG1), variant H2C12 (antibody, V domains shown)
# VH: EVQLVESGGGLVQPGGSLRLSCAASGYSFTGHWMNWVRQAPGKGLEWVGMIAPASSSTRYNQKFKDRFTISVDKSKNTLYLQMNSLRAEDTAVYYCARGIYFYGTTYFDYWGQGTLVTVSS
# VL: DIQMTQSPSSLSASVGDRVTITCRASKTISKYLAWYQQKPGKAPKLLIYSGSTLQSGVPSRFSGSGSGTDFTLTISSLQPEDFATYYCQQHNEYPLTFGQGTKVEIKR
# notes: Human IgG1; also called H2C l2; H2Cl2
# B2: humanized MHM24 F(ab)-6 (Fab, V domains shown)
# VH: B1 VH with Y27F, A52H, A54S, S55D, S57E, K76S, N77S
# VL: DIQMTQSPSSLSASVGDRVTITCRASKTISKYLAWYQQKPGKAPKLLIYSGSTLQSGVPSRFSGSGSGTDFTLTISSLQPEDFATYYCQQHNEYPLTFGQGTKVEIK
# B3: humanized MHM24 F(ab)-7 (Fab, V domains shown)
# VH: B1 VH with A52H, A54S, S55D, S57E, K76S, N77S
# VL: B2 VL
# B4: H2C11 variant IgG1 (antibody, V domains shown)
# VH: B1 VH with S57N
# VL: B2 VL
# notes: HuIgG1 variant, human IgG1
# B5: murine MHM24 (antibody, V domains shown)
# VH: EVQLQQPGAELMRPGASVKLSCKASGYSFTGHWMNWVRQRPGQGLEWIGMIHPSDSETRLNQKFKDKATLTVDKSSSSAYMQLSSPTSEDSAVYYCARGIYFYGTTYFDYWGQGTTLTVSS
# VL: DVQITQSPSYLAASPGETISINCRASKTISKYLAWYQEKPGKTNKLLIYSGSTLQSGIPSRFSGSGSGTDFTLTISSLEPEDFAMYYCQQHNEYPLTFGTGTKLELKR
# notes: Murine monoclonal antibody; also called muMHM24; murMHM24
# B6: chimeric MHM24 IgG1 (chIgG1) (antibody, V domains shown)
# VH: B5 VH
# VL: B5 VL
# notes: Murine VL and VH fused to human constant light and heavy (IgG1) chains; also called chimeric IgG1; chlgG1
# B7: humanized MHM24 F(ab)-1 (Fab, V domains shown)
# VH: EVQLVESGGGLVQPGGSLRLSCAASGFSFTGHWMNWVRQAPGKGLEWVGMIHPSDSETRYADSVKGRFTISVDNSKNTLYLQMNSLRAEDTAVYYCARGIYFYGTTYFDYWGQGTLVTVSS
# VL: B2 VL with T53S, Q55E
# notes: F(ab) from E. coli (VH-CH1 and kappa light chain)
# B8: humanized MHM24 F(ab)-2 (Fab, V domains shown)
# VH: B7 VH with A61N, D62Q, S63K, V64F, G66D
# VL: B2 VL with T53S, Q55E
# notes: F(ab) from E. coli
# Legend:
# rhesus CD11a [1] = molecular target: T1, rhesus CD11a (rhesus, UniProt H9Z8N3 26-1169); assay: binding to rhesus peripheral blood lymphocytes
# T1 construct: whole, on cells; also called rhCD11a
# T1 sequence: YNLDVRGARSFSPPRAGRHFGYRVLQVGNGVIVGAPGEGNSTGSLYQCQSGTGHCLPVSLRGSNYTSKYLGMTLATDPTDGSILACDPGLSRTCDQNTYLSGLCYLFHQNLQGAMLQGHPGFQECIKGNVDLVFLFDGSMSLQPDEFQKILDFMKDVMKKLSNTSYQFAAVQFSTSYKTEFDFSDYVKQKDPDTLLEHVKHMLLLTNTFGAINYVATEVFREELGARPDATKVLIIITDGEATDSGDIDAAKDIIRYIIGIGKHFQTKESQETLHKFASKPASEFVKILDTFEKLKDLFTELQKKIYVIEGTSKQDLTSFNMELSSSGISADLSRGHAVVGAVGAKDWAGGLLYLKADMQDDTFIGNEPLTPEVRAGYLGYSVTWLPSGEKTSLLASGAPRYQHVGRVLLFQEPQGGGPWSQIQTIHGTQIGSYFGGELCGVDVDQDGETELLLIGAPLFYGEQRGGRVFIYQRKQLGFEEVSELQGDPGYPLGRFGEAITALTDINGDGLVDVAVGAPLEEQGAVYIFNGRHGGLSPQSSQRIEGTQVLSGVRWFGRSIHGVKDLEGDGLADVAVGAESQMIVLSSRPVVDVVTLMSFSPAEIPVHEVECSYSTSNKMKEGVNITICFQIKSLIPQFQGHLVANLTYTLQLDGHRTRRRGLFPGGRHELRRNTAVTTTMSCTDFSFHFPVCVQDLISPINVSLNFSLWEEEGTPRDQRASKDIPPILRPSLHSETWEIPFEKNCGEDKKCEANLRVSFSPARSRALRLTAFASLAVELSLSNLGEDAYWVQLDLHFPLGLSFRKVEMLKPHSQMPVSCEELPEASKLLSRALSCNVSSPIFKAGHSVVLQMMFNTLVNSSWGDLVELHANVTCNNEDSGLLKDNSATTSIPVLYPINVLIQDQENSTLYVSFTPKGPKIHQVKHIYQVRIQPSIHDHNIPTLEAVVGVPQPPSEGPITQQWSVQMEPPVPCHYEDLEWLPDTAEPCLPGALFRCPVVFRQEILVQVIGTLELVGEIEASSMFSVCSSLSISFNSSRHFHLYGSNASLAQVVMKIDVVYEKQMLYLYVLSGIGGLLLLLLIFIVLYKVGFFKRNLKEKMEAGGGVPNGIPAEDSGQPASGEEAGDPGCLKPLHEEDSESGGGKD
# rhesus CD11a [2] = molecular target: T1, rhesus CD11a; assay: saturation binding, rhesus leukocytes, donor 3, with 1 mg/ml human IgG1, Kd(app)
# rhesus CD11a [3] = molecular target: T1, rhesus CD11a; assay: binding to rhesus peripheral blood lymphocytes; remark: listed apart in the source
# rhesus CD11a [4] = molecular target: T1, rhesus CD11a; assay: cell-based or functional assay
# [5] = molecular target: T2, rhesus-human chimeric CD11a (Rh/HuCD11a) (human (I-domain mutated to rhesus), UniProt P20701 26-1170); assay: cell-based or functional assay
# T2 sequence (looked up): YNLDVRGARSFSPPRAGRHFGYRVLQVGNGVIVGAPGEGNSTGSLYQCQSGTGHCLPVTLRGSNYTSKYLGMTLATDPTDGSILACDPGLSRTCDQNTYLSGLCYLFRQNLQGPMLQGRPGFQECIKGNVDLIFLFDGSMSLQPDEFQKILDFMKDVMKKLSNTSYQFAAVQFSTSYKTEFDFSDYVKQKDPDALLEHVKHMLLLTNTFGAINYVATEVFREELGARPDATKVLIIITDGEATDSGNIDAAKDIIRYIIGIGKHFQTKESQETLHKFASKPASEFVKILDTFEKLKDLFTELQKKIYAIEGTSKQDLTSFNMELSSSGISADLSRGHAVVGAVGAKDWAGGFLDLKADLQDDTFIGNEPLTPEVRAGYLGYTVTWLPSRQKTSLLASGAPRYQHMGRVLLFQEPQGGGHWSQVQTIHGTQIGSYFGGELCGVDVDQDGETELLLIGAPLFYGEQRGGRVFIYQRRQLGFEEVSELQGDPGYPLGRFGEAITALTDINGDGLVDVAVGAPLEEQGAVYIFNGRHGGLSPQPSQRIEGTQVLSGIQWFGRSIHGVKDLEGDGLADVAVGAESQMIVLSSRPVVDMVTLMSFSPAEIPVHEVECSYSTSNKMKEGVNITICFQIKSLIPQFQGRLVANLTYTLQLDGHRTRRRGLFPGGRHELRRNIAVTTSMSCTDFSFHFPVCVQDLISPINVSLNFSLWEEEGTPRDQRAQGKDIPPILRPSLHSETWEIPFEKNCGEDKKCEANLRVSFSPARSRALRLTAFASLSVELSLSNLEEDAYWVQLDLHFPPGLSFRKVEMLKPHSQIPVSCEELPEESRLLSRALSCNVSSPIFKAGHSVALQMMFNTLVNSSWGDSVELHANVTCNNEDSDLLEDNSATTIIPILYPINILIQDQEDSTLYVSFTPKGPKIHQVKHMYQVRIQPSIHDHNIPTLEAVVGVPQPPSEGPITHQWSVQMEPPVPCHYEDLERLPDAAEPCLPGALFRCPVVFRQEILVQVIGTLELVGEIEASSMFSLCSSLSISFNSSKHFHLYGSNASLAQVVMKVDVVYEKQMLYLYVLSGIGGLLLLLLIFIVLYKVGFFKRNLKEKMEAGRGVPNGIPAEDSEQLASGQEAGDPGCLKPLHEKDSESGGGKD
# rhesus CD11a [6] = molecular target: T1, rhesus CD11a; assay: cell-based or functional assay; remark: listed apart in the source
# rhesus CD11a [7] = molecular target: T1, rhesus CD11a; assay: cell binding EC50 on rhesus CD11a against HuIgG1 on human CD11a
# rhesus CD11a [8] = molecular target: T1, rhesus CD11a; assay: saturation binding, Kd(app)
# [9] = molecular target: T2, rhesus-human chimeric CD11a (Rh/HuCD11a); assay: cell-based or functional assay; remark: listed apart in the source
# rhesus CD11a [10] = molecular target: T1, rhesus CD11a; assay: cell-based or functional assay; remark: listed apart in the source
# rhesus CD11a [11] = molecular target: T1, rhesus CD11a; assay: saturation binding, rhesus leukocytes, donor 1, Kd(app)
# human CD11a [12] = molecular target: T3, human CD11a (human, UniProt P20701 26-1170); assay: FACScan, Jurkat cells
# T3 construct: whole, on cells; On cells it stands paired with CD18 as LFA-1; also called alpha subunit of LFA-1; LFA-1 (CD11a/CD18)
# human CD11a [13] = molecular target: T3, human CD11a; assay: FACScan, Jurkat cells; remark: listed apart in the source
# rhesus CD11a [14] = molecular target: T1, rhesus CD11a; assay: cell binding EC50, rhesus against human CD11a
# human CD11a [15] = molecular target: T3, human CD11a; assay: saturation binding, human lymphocytes, donor 2, Kd(app)
# human CD11a [16] = molecular target: T3, human CD11a; assay: saturation binding of 125I-antibody to human mononuclear cells, Kd(app)
# human CD11a [17] = molecular target: T3, human CD11a; assay: saturation binding, human lymphocytes, donor 1, Kd(app)
# human CD11a [18] = molecular target: T3, human CD11a; assay: cell-based or functional assay
binder,measurement,setting,value
B1,Var.EC50/HuIgG1 EC50,rhesus CD11a [1],0.004 ratio
same,Kd,rhesus CD11a [2],2.8 nM and 2.7 nM
same,EC50,rhesus CD11a [3],0.19 nM
same,fold improvement over the EC50 of HuIgG1 for rhesus CD11a,rhesus CD11a [3],240 to 415 fold
same,"IC50, rhesus mixed lymphocyte response assay",rhesus CD11a [4],23.4 nM
same,"fold down from MHM23, Rh/HuCD11a-293 cells to human keratinocytes",[5],4 fold
same,"fold less efficacious than MHM23, rhesus lymphocytes to human keratinocytes",rhesus CD11a [6],74 fold
same,"fold less efficacious than MHM23, rhesus lymphocytes to recombinant human ICAM-1",rhesus CD11a [6],4 fold
same,fold weaker than the EC50 of HuIgG1 for human CD11a,rhesus CD11a [7],3 to 5 fold
same,fold down in Kd from HuIgG1 for human CD11a,rhesus CD11a [8],~26 fold
same,"IC50, blocking of cell adhesion, Rh/HuCD11a:HuK",[9],4.9 nM
same,"IC50, blocking of cell adhesion, RhLy:HuICAM",rhesus CD11a [10],5.3 nM
same,"IC50, blocking of cell adhesion, RhLy:HuK",rhesus CD11a [10],119 nM
same,Kd,rhesus CD11a [11],3.9 nM
B2,fold improvement in binding over F(ab)-5,human CD11a [12],4 fold
same,EC50 F(ab)/EC50 F(ab)-2,human CD11a [13],0.012 ratio
B3,fold improvement in binding over F(ab)-6,human CD11a [12],3 fold
same,EC50 F(ab)/EC50 F(ab)-2,human CD11a [13],0.004 ratio
B4,Var.EC50/HuIgG1 EC50,rhesus CD11a [1],0.002 ratio
same,EC50,rhesus CD11a [3],0.11 nM
same,fold improvement over the EC50 of HuIgG1 for rhesus CD11a,rhesus CD11a [3],240 to 415 fold
same,fold weaker than the EC50 of HuIgG1 for human CD11a,rhesus CD11a [7],3 to 5 fold
B5,fold reduction in binding against human CD11a,rhesus CD11a [14],~1000 fold
same,Kd,human CD11a [15],0.13 nM
same,Kd,human CD11a [16],0.15 nM
same,Kd,human CD11a [17],0.16 nM
same,"IC50, blocking of cell adhesion, Jurkat:HuK",human CD11a [18],0.09 nM
B6,EC50,human CD11a [12],0.0052 µg/mL
same,EC50 F(ab)/EC50 F(ab)-2,human CD11a [13],0.006 ratio
same,"IC50, blocking of cell adhesion, Jurkat:HuK",human CD11a [18],0.1 nM
B7,binding result,human CD11a [13],no binding
B8,fold weaker EC50 than chimeric IgG1,human CD11a [12],148 fold
same,EC50,human CD11a [13],0.771 µg/mL
same,EC50 F(ab)/EC50 F(ab)-2,human CD11a [13],1 ratio
